Entries after “also recorded” stand apart in the source; their conditions may differ. Read-outs that look alike come from different tables or passages of the source.
Tests used:
[1] = system: blood coagulation system; experiment: effects on blood coagulation system of New Zealand rabbits in vitro (APTT, PT, TT); format: biochemical, New Zealand rabbit; design: PT: unit not given beside the values; APTT / TT: unit not given here
Description: Medicaments were diluted to the following concentrations for use: TNHH: 3.0 mg/ml; 1.0 mg/ml; 333 μg/ml; bivalrudin: 600 μg/ml; 200 μg/ml; 67 μg/ml; Hirudin: 660 μg/ml; 220 μg/ml; 73 μg/ml.
The blood was sampled from six New Zealand rabbits (10×1.8 ml for each one) from marginal ear vein and added into 10 anticoagulation tubes, respectively. 3.2% sodium citrate (9:1) was added for anticoagulation.
20 μl anticoagulated blood was taken from each tube, followed by the addition of 20 μl above diluted medicaments for each tube. 20 μl physiological saline was added into the control tube. Samples were mixed thoroughly and centrifuged at 3000 rpm/min for 3 min, and plasma was send to Department of Clinical Laboratory, Southwest Hospital for determining blood coagulation indexes (APTT, TT and PT) with a full automatic coagulation analyzer and the difference before and after administration was obtained by comparison.

[2] = system: cerebral ischemia in rats subjected to middle cerebral artery occlusion; format: in vivo, Wistar rats; conditions: for behavioral score: full score 11
[3] = target: thrombin (Homo sapiens, UniProt P00734); experiment: in vitro binding of TNHH to thrombin (SEC-HPLC); design: Human thrombin (127 Unit/ampoule), Lot No.: 20021105; purchased National Institute for The Control of Pharmaceutical and Biological Products Lot No.: 20021105; conditions: 37° C. 1 h
Description: Weigh TNHH, dilute to 1.0 mg/ml with phosphate buffer solution, and is ready for use; Weight fibrin precisely, dissolve and dilute to 0.1 mg/ml with phosphate buffer solution, and is ready for use; Weigh thrombin, dissolve and dilute to 100 units/ml with phosphate buffer solution, which is ready for use.
Following the below procedures, test materials were reacted at 37° C. for 1 h, and then analyzed under the following chromatographic conditions.
(1) pipette test material solutions (20 μl for each), loading for analysis, and recording each retention time.
(2) pipette fibrin and thrombin solutions (0.5 ml for each), mixing and reacting at 37° C. for 1 h, and loading 20 μl sample for analysis.
(3) pipette TNHH and fibrin solutions (0.5 ml for each), mixing and reacting at 37° C. for 1 h, and loading 20 μl sample for analysis.
(4) pipette TNHH and thrombin solutions (0.5 ml for each), mixing and reacting at 37° C. for 1 h, and loading 20 μl sample for analysis.
(5) pipette TNHH and mixture of fibrin and thrombin solutions (0.5 ml for each), mixing and reacting at 37° C. for 1 h, and loading 20 μl sample for analysis.
Flow rate 0.5 ml/min; detection wavelength: 214 nm, Column temperature: room temperature; chromatogram recording time: 25 min.

[4] = TNHH 3.33 μg/ml in rabbit blood
[5] = TNHH 10.00 μg/ml in rabbit blood
[6] = TNHH 30.00 μg/ml in rabbit blood

B1: TNHH: recombinant chimeric protein of neutrophil inhibitory factor and hirugen, Met-NIF-GGGGG-FPRPGSGG-Hirugen (SEQ ID NO: 3), expressed in E. coli (protein)
chain: MNEHNLRCPQNGTEMPGFNDSIRLQFLAMHNGYRSKLALGHISITEESESDDDDDFGFLPDFAPRASKMRYLEYDCEAEKSAYMSARNCSDSSSPPEGYDENKYIFENSNNISEAALKAMISWAKEAFNLNKTKEGEGVLYRSNHDISNFANLAWDAREKFGCAVVNCPLGEIDDETNHDGETYATTIHVVCHYPKINKTEGQPIYKVGTPCDDCSEYTKKADNTTSADPVCIPDDGVCFIGSKADYDSKEFYRFRELGGGGGFPRPGSGGNGDFEEIPEEYL
modifications: N-terminal Met
With B1 the APTT [1, 4] was 33.73 ± 6.35, the PT [1, 4] was 7.08 ± 0.28 and the TT [1, 4] was 17.13 ± 1.46. For the same molecule, the APTT [1, 5] was 31.87 ± 4.46, the PT [1, 5] was 7.15 ± 0.24 and the TT [1, 5] was 20.43 ± 1.59. It also gave an APTT [1, 6] of 38.08 ± 5.53, a PT [1, 6] of 7.27 ± 0.38 and a TT [1, 6] of 30.00 ± 4.81. For the same molecule, the behavioral score ([2]; 2 mg/kg bid caudal vein, 4 h) was 6.5 ± 1.0, the behavioral score ([2]; 2 mg/kg bid caudal vein, 8 h) was 6.2 ± 1.2 and the behavioral score ([2]; 2 mg/kg bid caudal vein, 24 h) was 5.8 ± 1.2. For the same molecule, the behavioral score ([2]; 2 mg/kg bid caudal vein, 48 h) was 5.3 ± 0.5, the behavioral score ([2]; 2 mg/kg bid caudal vein, 72 h) was 5.0 ± 0.6 and the “pathological section of brain (cerebral cortex nerve cells)” value ([2]; 2 mg/kg bid caudal vein, HE, compared with model group) was “least pathological changes; also recorded: more regular structural arrangements, a portion of deeply stained nucleus, and some cytoplasmic shrinkage or disappearance”. The “Cerebral infarction volume (%)” value ([2]; 72 h) was 23.2 ± 5.4 % and the binding with thrombin [3] was “could bind with fibrin and thrombin”.

— patent publication US8361965B2, “Recombinant chimeric protein of neutrophil inhibitory factor and hirugen, and pharmaceutical composition thereof” (Lunan Pharmaceutical Group Corporation, priority 2008, dated 2013)
